Test results from patent US20160017353A1.

Target: EGF receptor (EGFR) (human) (UniProt P00533)
Test: cell-based or functional assay

HK-2 cell proliferation (cell count), 150 ng/ml total rice medium protein (5 ng H-EGF): 2.9 fold
Substance: recombinant HSA-EGF fusion protein (human serum albumin fused to the N-terminal end of human EGF), secreted from transgenic rice cell line H-EGF 43 (from UniProt P02768 25-609) (ligand)
